Molecular target: recombinant soluble human beta secretase expressed in CHO-K1 cells (Hu_Asp-2LΔTM(His)6), not treated with HIV protease (UniProt P56817)

Substance: HIV-1 protease
- cleavage of the F39-V40 bond (N-terminal sequence analysis): nearly 100% cleavage of the F^39-V^40 bond occurred

— patent US7384773
